Measured values from patent publication US20140213513A1 (Sanofi, priority 2012, published 2014).
*1 amine or outer side, *2 acyl side, *3 side chain or, on linkers, in order; H or OH if unused. Where no end group is shown, it is not given here. Side-chain parts run from the residue outwards. [ ]: non-standard residue; d: D form. The star is where a group is joined. γGlu = O=C(O)[C@H](CCC(=O)[*:2])N[*:1]; Stearoyl = CCCCCCCCCCCCCCCCCC(=O)*; Palmitoyl = CCCCCCCCCCCCCCCC(=O)*; Aib = CC(C)(N)C(=O)O

T1: human GIP receptor (human, UniProt P48546 22-466)
T1 sequence (looked up): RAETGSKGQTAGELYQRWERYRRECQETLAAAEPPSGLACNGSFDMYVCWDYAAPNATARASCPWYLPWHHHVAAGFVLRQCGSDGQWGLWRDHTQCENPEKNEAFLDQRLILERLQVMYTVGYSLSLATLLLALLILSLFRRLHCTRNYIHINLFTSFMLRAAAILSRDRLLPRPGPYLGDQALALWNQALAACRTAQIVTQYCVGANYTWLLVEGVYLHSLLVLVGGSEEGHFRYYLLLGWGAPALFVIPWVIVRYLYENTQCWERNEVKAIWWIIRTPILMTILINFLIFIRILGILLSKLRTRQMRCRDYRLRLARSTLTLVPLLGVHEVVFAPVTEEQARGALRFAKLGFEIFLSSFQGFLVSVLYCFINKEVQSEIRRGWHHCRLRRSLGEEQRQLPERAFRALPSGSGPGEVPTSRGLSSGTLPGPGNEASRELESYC


Tests used:
Experiment in all cases: cell-based or functional assay
human GLP-1 receptor = human GLP-1 receptor (human, UniProt P43220 24-463)
human GIP receptor = target: T1, human GIP receptor
human glucagon receptor = human glucagon receptor (human, UniProt P47871 26-477)
Chain of human glucagon receptor (P47871 26-477): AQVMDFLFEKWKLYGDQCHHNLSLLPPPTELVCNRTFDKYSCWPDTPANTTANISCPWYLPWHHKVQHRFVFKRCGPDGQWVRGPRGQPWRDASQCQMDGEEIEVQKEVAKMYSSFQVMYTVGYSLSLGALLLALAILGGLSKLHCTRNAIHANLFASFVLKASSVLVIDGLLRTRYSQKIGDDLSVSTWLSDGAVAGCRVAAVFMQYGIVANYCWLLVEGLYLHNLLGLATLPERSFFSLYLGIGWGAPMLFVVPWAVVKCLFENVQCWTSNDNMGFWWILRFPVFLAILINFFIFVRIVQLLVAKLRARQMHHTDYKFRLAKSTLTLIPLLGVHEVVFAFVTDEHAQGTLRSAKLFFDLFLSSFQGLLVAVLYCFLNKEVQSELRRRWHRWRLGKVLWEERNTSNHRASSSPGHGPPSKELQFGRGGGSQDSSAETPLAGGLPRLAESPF

Binder	EC50 hGLP-1 R (human GLP-1 receptor)	EC50 hGIP R (human GIP receptor)	EC50 hGLUC R (human glucagon receptor)
Y[Aib]EGTFTSDLSIQK([γGlu-Palmitoyl])EKRAAHEFIEWLKNTGPSSGAPPPS-NH2 (N-terminus assumed; SMILES CCCCCCCCCCCCCCCC(=O)N[C@@H](CCC(=O)NCCCC[C@H](NC(=O)[C@H](CCC(N)=O)NC(=O)[C@@H](NC(=O)[C@H](CO)NC(=O)[C@H](CC(C)C)NC(=O)[C@H](CC(=O)O)NC(=O)[C@H](CO)NC(=O)[C@@H](NC(=O)[C@H](Cc1ccccc1)NC(=O)[C@@H](NC(=O)CNC(=O)[C@H](CCC(=O)O)NC(=O)C(C)(C)NC(=O)[C@@H](N)Cc1ccc(O)cc1)[C@@H](C)O)[C@@H](C)O)[C@@H](C)CC)C(=O)N[C@@H](CCC(=O)O)C(=O)N[C@@H](CCCCN)C(=O)N[C@@H](CCCNC(=N)N)C(=O)N[C@@H](C)C(=O)N[C@@H](C)C(=O)N[C@@H](Cc1c[nH]cn1)C(=O)N[C@@H](CCC(=O)O)C(=O)N[C@@H](Cc1ccccc1)C(=O)N[C@H](C(=O)N[C@@H](CCC(=O)O)C(=O)N[C@@H](Cc1c[nH]c2ccccc12)C(=O)N[C@@H](CC(C)C)C(=O)N[C@@H](CCCCN)C(=O)N[C@@H](CC(N)=O)C(=O)N[C@H](C(=O)NCC(=O)N1CCC[C@H]1C(=O)N[C@@H](CO)C(=O)N[C@@H](CO)C(=O)NCC(=O)N[C@@H](C)C(=O)N1CCC[C@H]1C(=O)N1CCC[C@H]1C(=O)N1CCC[C@H]1C(=O)N[C@@H](CO)C(N)=O)[C@@H](C)O)[C@@H](C)CC)C(=O)O) [exendin-4 peptide analogue SEQ ID NO: 59]	7.5 pM	17.5 pM	12300 pM
Y[Aib]EGTFTSDLSIQK([γGlu-Palmitoyl])DKRAAQLFIEWLKNGGPSSGAPPPS-NH2 (N-terminus assumed; SMILES CCCCCCCCCCCCCCCC(=O)N[C@@H](CCC(=O)NCCCC[C@H](NC(=O)[C@H](CCC(N)=O)NC(=O)[C@@H](NC(=O)[C@H](CO)NC(=O)[C@H](CC(C)C)NC(=O)[C@H](CC(=O)O)NC(=O)[C@H](CO)NC(=O)[C@@H](NC(=O)[C@H](Cc1ccccc1)NC(=O)[C@@H](NC(=O)CNC(=O)[C@H](CCC(=O)O)NC(=O)C(C)(C)NC(=O)[C@@H](N)Cc1ccc(O)cc1)[C@@H](C)O)[C@@H](C)O)[C@@H](C)CC)C(=O)N[C@@H](CC(=O)O)C(=O)N[C@@H](CCCCN)C(=O)N[C@@H](CCCNC(=N)N)C(=O)N[C@@H](C)C(=O)N[C@@H](C)C(=O)N[C@@H](CCC(N)=O)C(=O)N[C@@H](CC(C)C)C(=O)N[C@@H](Cc1ccccc1)C(=O)N[C@H](C(=O)N[C@@H](CCC(=O)O)C(=O)N[C@@H](Cc1c[nH]c2ccccc12)C(=O)N[C@@H](CC(C)C)C(=O)N[C@@H](CCCCN)C(=O)N[C@@H](CC(N)=O)C(=O)NCC(=O)NCC(=O)N1CCC[C@H]1C(=O)N[C@@H](CO)C(=O)N[C@@H](CO)C(=O)NCC(=O)N[C@@H](C)C(=O)N1CCC[C@H]1C(=O)N1CCC[C@H]1C(=O)N1CCC[C@H]1C(=O)N[C@@H](CO)C(N)=O)[C@@H](C)CC)C(=O)O) [exendin-4 peptide analogue SEQ ID NO: 55]	16.1 pM	15.6 pM	18300 pM
Y[Aib]EGTFTSDLSIQK([γGlu-Palmitoyl])EERAAHEFIEWLKR[Aib]GPSSGAPPPSK-NH2 (N-terminus assumed; SMILES CCCCCCCCCCCCCCCC(=O)N[C@@H](CCC(=O)NCCCC[C@H](NC(=O)[C@H](CCC(N)=O)NC(=O)[C@@H](NC(=O)[C@H](CO)NC(=O)[C@H](CC(C)C)NC(=O)[C@H](CC(=O)O)NC(=O)[C@H](CO)NC(=O)[C@@H](NC(=O)[C@H](Cc1ccccc1)NC(=O)[C@@H](NC(=O)CNC(=O)[C@H](CCC(=O)O)NC(=O)C(C)(C)NC(=O)[C@@H](N)Cc1ccc(O)cc1)[C@@H](C)O)[C@@H](C)O)[C@@H](C)CC)C(=O)N[C@@H](CCC(=O)O)C(=O)N[C@@H](CCC(=O)O)C(=O)N[C@@H](CCCNC(=N)N)C(=O)N[C@@H](C)C(=O)N[C@@H](C)C(=O)N[C@@H](Cc1c[nH]cn1)C(=O)N[C@@H](CCC(=O)O)C(=O)N[C@@H](Cc1ccccc1)C(=O)N[C@H](C(=O)N[C@@H](CCC(=O)O)C(=O)N[C@@H](Cc1c[nH]c2ccccc12)C(=O)N[C@@H](CC(C)C)C(=O)N[C@@H](CCCCN)C(=O)N[C@@H](CCCNC(=N)N)C(=O)NC(C)(C)C(=O)NCC(=O)N1CCC[C@H]1C(=O)N[C@@H](CO)C(=O)N[C@@H](CO)C(=O)NCC(=O)N[C@@H](C)C(=O)N1CCC[C@H]1C(=O)N1CCC[C@H]1C(=O)N1CCC[C@H]1C(=O)N[C@@H](CO)C(=O)N[C@@H](CCCCN)C(N)=O)[C@@H](C)CC)C(=O)O) [exendin-4 peptide analogue SEQ ID NO: 57]	7.1 pM	15.7 pM	14400 pM
Y[Aib]QGTFTSDLSKQK([γGlu-Palmitoyl])DSRAARDFIEWLKAGGPSSGAPPPS-NH2 (N-terminus assumed; SMILES CCCCCCCCCCCCCCCC(=O)N[C@@H](CCC(=O)NCCCC[C@H](NC(=O)[C@H](CCC(N)=O)NC(=O)[C@H](CCCCN)NC(=O)[C@H](CO)NC(=O)[C@H](CC(C)C)NC(=O)[C@H](CC(=O)O)NC(=O)[C@H](CO)NC(=O)[C@@H](NC(=O)[C@H](Cc1ccccc1)NC(=O)[C@@H](NC(=O)CNC(=O)[C@H](CCC(N)=O)NC(=O)C(C)(C)NC(=O)[C@@H](N)Cc1ccc(O)cc1)[C@@H](C)O)[C@@H](C)O)C(=O)N[C@@H](CC(=O)O)C(=O)N[C@@H](CO)C(=O)N[C@@H](CCCNC(=N)N)C(=O)N[C@@H](C)C(=O)N[C@@H](C)C(=O)N[C@@H](CCCNC(=N)N)C(=O)N[C@@H](CC(=O)O)C(=O)N[C@@H](Cc1ccccc1)C(=O)N[C@H](C(=O)N[C@@H](CCC(=O)O)C(=O)N[C@@H](Cc1c[nH]c2ccccc12)C(=O)N[C@@H](CC(C)C)C(=O)N[C@@H](CCCCN)C(=O)N[C@@H](C)C(=O)NCC(=O)NCC(=O)N1CCC[C@H]1C(=O)N[C@@H](CO)C(=O)N[C@@H](CO)C(=O)NCC(=O)N[C@@H](C)C(=O)N1CCC[C@H]1C(=O)N1CCC[C@H]1C(=O)N1CCC[C@H]1C(=O)N[C@@H](CO)C(N)=O)[C@@H](C)CC)C(=O)O) [exendin-4 peptide analogue SEQ ID NO: 56]	4.6 pM	162 pM	19.9 pM
Y[Aib]EGTFTSDLSIQK([γGlu-Palmitoyl])DKRKAQDFIEWLKNGGPSSGAPPPS-NH2 (N-terminus assumed; SMILES CCCCCCCCCCCCCCCC(=O)N[C@@H](CCC(=O)NCCCC[C@H](NC(=O)[C@H](CCC(N)=O)NC(=O)[C@@H](NC(=O)[C@H](CO)NC(=O)[C@H](CC(C)C)NC(=O)[C@H](CC(=O)O)NC(=O)[C@H](CO)NC(=O)[C@@H](NC(=O)[C@H](Cc1ccccc1)NC(=O)[C@@H](NC(=O)CNC(=O)[C@H](CCC(=O)O)NC(=O)C(C)(C)NC(=O)[C@@H](N)Cc1ccc(O)cc1)[C@@H](C)O)[C@@H](C)O)[C@@H](C)CC)C(=O)N[C@@H](CC(=O)O)C(=O)N[C@@H](CCCCN)C(=O)N[C@@H](CCCNC(=N)N)C(=O)N[C@@H](CCCCN)C(=O)N[C@@H](C)C(=O)N[C@@H](CCC(N)=O)C(=O)N[C@@H](CC(=O)O)C(=O)N[C@@H](Cc1ccccc1)C(=O)N[C@H](C(=O)N[C@@H](CCC(=O)O)C(=O)N[C@@H](Cc1c[nH]c2ccccc12)C(=O)N[C@@H](CC(C)C)C(=O)N[C@@H](CCCCN)C(=O)N[C@@H](CC(N)=O)C(=O)NCC(=O)NCC(=O)N1CCC[C@H]1C(=O)N[C@@H](CO)C(=O)N[C@@H](CO)C(=O)NCC(=O)N[C@@H](C)C(=O)N1CCC[C@H]1C(=O)N1CCC[C@H]1C(=O)N1CCC[C@H]1C(=O)N[C@@H](CO)C(N)=O)[C@@H](C)CC)C(=O)O) [exendin-4 peptide analogue SEQ ID NO: 54]	66.8 pM	105 pM	2620 pM
Y[Aib]EGTFTSDLSIQK([γGlu-Stearoyl])ESKAAHEFIEWLKAGGPSSGAPPPSK-NH2 (N-terminus assumed; SMILES CCCCCCCCCCCCCCCCCC(=O)N[C@@H](CCC(=O)NCCCC[C@H](NC(=O)[C@H](CCC(N)=O)NC(=O)[C@@H](NC(=O)[C@H](CO)NC(=O)[C@H](CC(C)C)NC(=O)[C@H](CC(=O)O)NC(=O)[C@H](CO)NC(=O)[C@@H](NC(=O)[C@H](Cc1ccccc1)NC(=O)[C@@H](NC(=O)CNC(=O)[C@H](CCC(=O)O)NC(=O)C(C)(C)NC(=O)[C@@H](N)Cc1ccc(O)cc1)[C@@H](C)O)[C@@H](C)O)[C@@H](C)CC)C(=O)N[C@@H](CCC(=O)O)C(=O)N[C@@H](CO)C(=O)N[C@@H](CCCCN)C(=O)N[C@@H](C)C(=O)N[C@@H](C)C(=O)N[C@@H](Cc1c[nH]cn1)C(=O)N[C@@H](CCC(=O)O)C(=O)N[C@@H](Cc1ccccc1)C(=O)N[C@H](C(=O)N[C@@H](CCC(=O)O)C(=O)N[C@@H](Cc1c[nH]c2ccccc12)C(=O)N[C@@H](CC(C)C)C(=O)N[C@@H](CCCCN)C(=O)N[C@@H](C)C(=O)NCC(=O)NCC(=O)N1CCC[C@H]1C(=O)N[C@@H](CO)C(=O)N[C@@H](CO)C(=O)NCC(=O)N[C@@H](C)C(=O)N1CCC[C@H]1C(=O)N1CCC[C@H]1C(=O)N1CCC[C@H]1C(=O)N[C@@H](CO)C(=O)N[C@@H](CCCCN)C(N)=O)[C@@H](C)CC)C(=O)O) [exendin-4 peptide analogue SEQ ID NO: 58]	12.5 pM	8.6 pM	16000 pM
